Assay: yeast display, Sf9 membrane polyspecificity reagent, FACS + sequencing; frameworks hold sequencing errors
How it was run: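 Sorting gates, low and high (top ~1%), were placed on anti-HA fluorescence to track expression and on streptavidin fluorescence to track reagent binding. A clone's polyreactivity label is taken from the gate it came out of. The reagent was 10% biotinylated, detergent-solubilized Sf9 membrane, applied for 1 hour at 4 °C to galactose-induced yeast display cells.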

Sequence: QVQLVESGGGLVQAGGSLRLSCAASGRTFQSYAMGWYRQAPGKERELVASITSGASTNYADSVKGRFTISRDNAKNTVYLQMNSLKPEDTAVYYCARRIGHGSRPYWLETWRYPYDYWGQGTQVTVSS
- polyreactivity (PSR sort gate): low polyreactivity

Sequence: QVQLVQSGGGLVQAGGSLRLSCAASGSIFAVYGMGWNRQAPGKERELVASISTGVSTNYADSVKGRFTISRDNAKNTVYLQRHSLKPEDTAVYYCAKTIYKSRVSYGSWGQGTQVTVSS
- polyreactivity (PSR sort gate): low polyreactivity

Sequence: QVQLVESGGGLVQAGGSLRLSSAASGSIFPLYAMGWYRQAPGKERELVATINRRTGSTYADSVKGRFTISRDNAKNTVYLQMKSLKPEYTAVYYCNAADNYVLFYKTRIYNYWGQGTQVTVSS
- polyreactivity (PSR sort gate): high polyreactivity

Sequence: QVQLVESGGGLVQAGGSLRLSCAASGSIFAVYAMGWYRQAPGKERELVASITNDGSTYADSVKGRFTISRDNAKNTVYLQLNSLKPEDTAVYYCNADYLTYFTTFDYWGQGTQVTVSS
- polyreactivity (PSR sort gate): low polyreactivity

Sequence: QVQLVESGGGLVQAGGSLRLSCAASARIIYSNAMGWYRQAPGKERELVATISTGGSTYADSVKGRFTISRDNAKNTVYLQINSLKPEDTAVYYCAVDEWRWRVGAVAYYYWGQGTQVTVSS
- polyreactivity (PSR sort gate): low polyreactivity

Sequence: QVQLVESGGGLVQAGGSLSLSCAASGSTFGYYARGWYRQAPGKERELVATITIGGYTHYADSVKGRFTISRDNAKNTVYLQMNSLKPEDTAFYYCAKRYYTNRHSRAFGYWGQGTQVTVSS
- polyreactivity (PSR sort gate): high polyreactivity

Sequence: QVQLVESGGGLVQAGGSLSLSCAASGTFSPYAMGWYRQAPGKERELVADITSNTGRTYAASVKGRFTISRDNAKNTVYLQMNSLKPEDTAVYYCNTYGSGTHSTGYDYWGQGTQVTVSS
- polyreactivity (PSR sort gate): low polyreactivity

Sequence: QVQLVESGGGLVQAGGSLRLSCAASGSIFYRNAMGWYRQAPGKERELVAAISSRGTRTYYADSVKGRFTISRDNAKNTVYLQMNSLKPEDTAVYYCAAADYRFYNGPYSRRWLYGYWGQGTQVTVSS
- polyreactivity (PSR sort gate): high polyreactivity

Sequence: QVQLVESGGGLVEAGGSLRLSCAASGGIFKIYSMGWYIQAPGKERELVAGINWSDTGTYYADSVKGRFTISRDNAKNTVYLQMNSLKPEDTAVYYCAVSGYPVYITYVSYDYDYWGQGTQVNVSS
- polyreactivity (PSR sort gate): low polyreactivity

Sequence: QVQLVESGGGLVQAGGSLRLSCAASGRTFRTNTMGWYRQAPGKERELVAAIRYIGGSTYYADSVKGRFTISRDNAKNTVYLQMNSLKPEDTAVYYCAAYRYGSRYGYEYWGQGTQVTVSS
- polyreactivity (PSR sort gate): high polyreactivity

Sequence: QVQLVESGGGLVQAGGSLRLSCAASGFTFDWYAMGWSRQAPGKERELVAAISSSGTSRYYADSVKGRFTISRDNAKNTVYLQMNSLKPEDTAVYYCAARWYYVTPLRRYGYWGQGTQVTVSS
- polyreactivity (PSR sort gate): high polyreactivity

Sequence: QVQLVESGGGLVQAGGSLRLSCAASGFTFRYYAMGWYRQAPGKERELVASINWSGGSTYYADSVKGRFTISRDNAKNTVYLQMNSLKPEDTAVYYCAADSIWGHYFARFDYWGQGTQVTVSS
- polyreactivity (PSR sort gate): high polyreactivity

Sequence: QVQLVESGGGLVQAGGSLRLSCAASGSIFESYAMGWYRQAPGKERELVADITYDGGITYYADSVKGRFTISRDNAKNTVYLQLNSLKPEDTAVYYCAAQAWWGYYSRGPMDYWGQGTQVTVSS
- polyreactivity (PSR sort gate): low polyreactivity

Sequence: QVQLEESGGGLVLAGGSLRLSCAAAGSTFVTNDMGWYRQAPGKERELGAAISVGGRTSYADSVKGRFTISRDNAKNTVYLQMNSLKPEESAVDYCAAQYSYTYWGQGTQVTVSS
- polyreactivity (PSR sort gate): low polyreactivity

Sequence: QVQLVESGGGLVQAGGSLRLSCAASGSIFSYNAMGWYRQAPGKEMELVAAISSGGSTYYADSVKGSFTISRDNAKNTVYLQMNSLKPEDTAVYYCNVYYLIWPYGHQVKRRDYWGQGTQVTVSS
- polyreactivity (PSR sort gate): low polyreactivity

Sequence: QVQIVESGGGLVQAGGSLRLSCAASGSTFFANTMGWYRQAPGKERELVAAISWSSVRTYYADSVKGRFTISRDHAKNTVYLQMNSLKPEDTAVYYCAAYSRFRYDYWGQGTQVTVSS
- polyreactivity (PSR sort gate): high polyreactivity

Sequence: QVQLVESGGGLVQAGGSLRLSCAASGRIFVVNAMGWYRQAPGKERELVATITRSGGITYYADSVKGRFTISRDNAKNTVYLQMNSLNPEDTAVYYCNADVLFYTYYTRGRFDFDYWGQGTQVTVSS
- polyreactivity (PSR sort gate): low polyreactivity

Sequence: QVQLVESGGGLVQAGGSLRLSCAAYGSILARYAMGWYRQAPGKERELVAAISYNGGSTYYADSVKGRFTISRDNAKNTVYLQMNSLKPEDTAVYYCAKAYDTTLTYNFWGQGTQVTVSS
- polyreactivity (PSR sort gate): low polyreactivity

Sequence: QVQLVESGGGLVQAGGSLRLSCAASGRTFKKYAMGWYRQAPGKERELVAAITGSGGSTYYADSVKGRFTISRDNAKNTVYLQMNILTPEDTAVYYCAAYAYGVWHSQDGGNYWGQCTQVTVSS
- polyreactivity (PSR sort gate): low polyreactivity

Sequence: QVQLVESGGGLVQAGGSLRLSCAASGSTFPRYAMGWYRQAPGKERELVAAMSSSGGRTYYADSVKGRFTISRDNAKNTVYLQMNSLKPEDTAVYYCAARAFKTIIYDYWGQGTQVTVSS
- polyreactivity (PSR sort gate): high polyreactivity

Sequence: QVQLVESGGGLVQAGGSLRLSCAASGSIGYYAMGWYRQAPGKERELVAVISRSGTGTSYADSVKGRFTISRDNAKNTVYSQMTSLKPEDTAVYYCNAETYTYRYENDYWGQGTQVTVSS
- polyreactivity (PSR sort gate): high polyreactivity

Sequence: QVQLVESGGGLVQAGGSLRLSCAASGITFYKKVMGWYRPAPGKEKELVAAISSSGGSTYYADSVKGRFTISRDNAKNTVYLQRNSLKPEDTAVYYCAADDPLYTPYEFDYWGQGTQVTVSS
- polyreactivity (PSR sort gate): low polyreactivity

Sequence: QVQLVESGGGLVQAGGSLRLSCAASLRIFYSNAMGWSRQAPGKERELVAAISSSGGITYYADSVKGRFTISRDNAKNTVYLQMNSLKPEDTAVYYCAVDSRHYIRAFDHWGQGTQVTVSS
- polyreactivity (PSR sort gate): low polyreactivity

Sequence: QVHLVQSGGGLVQAGGSLRLSCAASGRIFKFYAMGWYRQAPGKEMELVATISRGGSTYYADSVKGRFTISRDNAKNTVYLQMNSLKPEDTAVYYCAKQRERYYWFGAWSYDYWGQGTQVTVSS
- polyreactivity (PSR sort gate): low polyreactivity

Sequence: QVQLVESGGGLVQAGGSLRLSCAASGFIFLPYAMGWYRQEPGKERELVAAITRGGRTYYADSVKGRFTISRDNAKNTVSLQMNSLKPEVTAVSYFAATPYLFWGYNYWGQGTQVTVSS
- polyreactivity (PSR sort gate): low polyreactivity

Sequence: QVQLVESGGGLVQAGGSLRLSCAASGIIIGNNAMGWYRQAPGKERELVAPISRRGGSTYYADSVKGRFTISRDNAKNTVYLQMNSLKPEYTAVYYCAADIYRYNSYDYWGQGTQVTVSS
- polyreactivity (PSR sort gate): low polyreactivity

Sequence: QVQLVESVGGLVQAGGSLRLSCAASGITFGYNAMGWYRQAPGKERELVASISYSGDSTYYADSVKGRFTISRDNAKNSVYLQMNSLKPEDTGVYYCAAGRQVLKRRYDYWGQGTQVTVSS
- polyreactivity (PSR sort gate): low polyreactivity

Sequence: QVQIVESGGGLVQAGGSLRLSCAASGSTVQYYAMGWYRQAPGKERELVAAISYTGGSTYYADSVKARFTISRDNAKNSVYLEMSSLKPEDTAVYYCAAGRRGSDTGTEYYWGQGTQVTVSS
- polyreactivity (PSR sort gate): high polyreactivity

Sequence: QVQLVESGGGLVQAGGSLRLSCAASGFTFRYYVMGWYRQSPGKERELVASISRAGSTTNYADSVKGRFTISRDNAKNTVYLQMNSLNPEDTAVYYCNVVITPGYSYDISRGEGYWGQGTQVTVSS
- polyreactivity (PSR sort gate): high polyreactivity

Sequence: QVQLVESGGGLVQAGGSLRLSCAASGPTFLYNAMGWYRQAPGKERELVAAISRSAVSTYYADSVKGRFTISRDNAKNTVYLQINSLKPDDTAVYYCSADYRGRYATYRSYASVLYDYWGQGTQVTVSW
- polyreactivity (PSR sort gate): low polyreactivity

Sequence: KVQLVESGGGLVQAGGSLRLSCAASGSIFWFYAMGWYRQAPGKEREFVATISRSCGSTYYADSVKGRFTISRDNAKNTDYLQMNSLKPEDTAVYYCIARGPRSHRYDYWGQGTQVNVSS
- polyreactivity (PSR sort gate): high polyreactivity

Sequence: QFQLVESGGGLVQAGGILRLSCDASGSILARYALGWYRQAPGKERVLVAAISSRGGSTYYADSVKGRFSISRDNAKNTVYLQMNSLKPEDTAVYYCASYVYLQVEYDYWGQGTQVTVSS
- polyreactivity (PSR sort gate): low polyreactivity

Sequence: QVQLVESGGGLVQAGGSLRLSCAASGRIFYFYALGWYRQAPGKERELVAAIDSGGSTYYADSVKGRFTISRDNAKNTVYLQMNSLKPEDTAVYYCNADGFYSWLYDYWGQGTQVTVSS
- polyreactivity (PSR sort gate): low polyreactivity

Sequence: QVQLVESGGGLVQAGGSLRLSCAASGSTFTVYAMGWYRQAPGKERELVAAISESGTSTYYADSVKGRFTISRDNAKNTVYLQMNSLNPEDTAVYYCAADGPGTSEDDYWGQGTQVTVSS
- polyreactivity (PSR sort gate): high polyreactivity

Sequence: QVQLVESGGGLVQAGGSLRVSCAASGLTFGDYTMGWYRQAPGKERELVAAISTAGGSTYYADSVKGRFTISREHANNTVYLHMNSLKPEDTAVYYCNARRTHTRSHYYYWGQGTQVTVSS
- polyreactivity (PSR sort gate): high polyreactivity

Sequence: QVKLVESGGGLVPAGGSLRLSCAASGNIFVNYAMRWYRQAPGKERELVASINYNGGITYYADSVKGRFTISRDNAKNTVYLQMNSLKPEDTAVYDCDKDGGGLLRWYTDEYDYWGQGTQVTVSS
- polyreactivity (PSR sort gate): low polyreactivity

Sequence: QVQLVESGGGLVQAGGSLRLSCAASGFTFWVYAMGWYRQAPGKEREFVAAISGIGDDTNYADSVKGRFTISRDNAKNTVYLQMNSLKPEDTAVYYCATVALRYYGVTEFDYWGQGTQVTVSS
- polyreactivity (PSR sort gate): high polyreactivity

Sequence: QVQLVESGGGLVQAGGSLRLSCAGSGRIFQRNDMGWYRQAPGKARELVAGITGCGGRTYYADSVKGRFTISRDNEKNTVYLQMNSLKPEDTAVYYCAAALWSSRGRVLSRRDYWGQGTQVTVSS
- polyreactivity (PSR sort gate): high polyreactivity

Sequence: QVQLVESGGGLVQAGGSLRLSCAASGSIFYDKAMGWYRQAPGKERELVAVISNSGRTYYADSVKGRFTISRDNAKNTVYLQMNSLKPEDTAVYYCWGQVTQVTVSS
- polyreactivity (PSR sort gate): low polyreactivity

Sequence: QVQLVESGGGLVQAGGSLRLSCAASGNIFYLNTMGWYRQAPGKERELVASISRDGGRTYYADSVKGRFTISRDNAKNTVYLQMNSLKPEDTAVYYCAAVVLHHFTEVGQHYYWGQGTQVTVSS
- polyreactivity (PSR sort gate): low polyreactivity

Sequence: QVQLVESGGGLVQAGGSLRLSCAASGITFSGNAMGWYIQARGKERELVAGISRRGGSTYYADSVKGSFTISRDNAKNTVYLQINCLKPEATAVYYCADGRDRYRGVAYDYWGQGTQVTVSS
- polyreactivity (PSR sort gate): high polyreactivity

Sequence: QVHLVESGGGLVQAGGSLRLSWAASGSILRQYAMGWYRQAPGKERELVATITGDGSTNYADSVKGRFTISRDNAKNTVYLQMNSLKPQDTAVYYCITDLTYPNPNVEVMVYGFKLDYWGQGTQVTVSS
- polyreactivity (PSR sort gate): low polyreactivity

Sequence: QVQLQESGGGLVQVGGSLRLSCAASGTIFNYGFLGRNRQAPGKERELVASINLGGITNYADSVKGRFTISRDNAKNTVYLQMISLKPEDTAVYYCAAYVVTGQNYGYWGQGTQVTVSS
- polyreactivity (PSR sort gate): low polyreactivity
